Laboratory results as given in the supplement of paper PMC9112550, “Optimization of the antimicrobial peptide Bac7 by deep mutational scanning” (BMC Biology, 2022).

These sequences were tested on Escherichia coli TOP10 (assay: shrunken log2 fold change of peptide-encoding DNA abundance (4.5 h post-induction vs induction); higher = less antimicrobial activity (less host growth inhibition)). Conditions: time post-induction: 4.5 h; library: site-saturation at positions 5, 18, 19, 20.
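Further: peptides expressed intracellularly from a pBAD plasmid library in pooled LB shake-flask culture, induced with 0.3% L-arabinose, DNA abundance read by NGS, three biological replicates, DESeq2 with apeglm shrinkage.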

Row | Sequence | shrunken log2 fold change
1 | RRIRARPPRLPRPRPRPSCDPRP | 0.323
2 | RRIRVRPPRLPRPRPRPELHPRP | 0.133
3 | RRIRGRPPRLPRPRPRPKVWPRP | 0.665
4 | RRIRSRPPRLPRPRPRPLSPPRP | 0.0487
5 | RRIRGRPPRLPRPRPRPYMFPRP | 0.221
6 | RRIRARPPRLPRPRPRPEFLPRP | 0.465
7 | RRIRTRPPRLPRPRPRPVMNPRP | -0.143
8 | RRIRDRPPRLPRPRPRPCQLPRP | -0.0273
9 | RRIRWRPPRLPRPRPRPMLHPRP | -0.17
10 | RRIRMRPPRLPRPRPRPGNDPRP | 1.19
11 | RRIRYRPPRLPRPRPRPPGNPRP | -0.0342
12 | RRIRDRPPRLPRPRPRPTNTPRP | -0.142
13 | RRIRNRPPRLPRPRPRPFIPPRP | -0.0923
14 | RRIRIRPPRLPRPRPRPFMKPRP | -0.127
15 | RRIRRRPPRLPRPRPRPNIYPRP | -0.252
16 | RRIRMRPPRLPRPRPRPCLTPRP | 0.000866
17 | RRIRLRPPRLPRPRPRPDPMPRP | -0.00264
18 | RRIRIRPPRLPRPRPRPYMNPRP | -0.712
19 | RRIRSRPPRLPRPRPRPKDRPRP | 0.201
20 | RRIRCRPPRLPRPRPRPRQHPRP | -0.0138
21 | RRIRRRPPRLPRPRPRPPYEPRP | 0.492
22 | RRIRMRPPRLPRPRPRPIQLPRP | -0.0799
23 | RRIRDRPPRLPRPRPRPEFAPRP | 1.54
24 | RRIRGRPPRLPRPRPRPNDIPRP | -0.528
25 | RRIRHRPPRLPRPRPRPLSHPRP | -0.00358

Row | Sequence | shrunken log2 fold change
26 | RRIRNRPPRLPRPRPRPNPHPRP | -0.116
27 | RRIRIRPPRLPRPRPRPWVDPRP | 0.0772
28 | RRIRKRPPRLPRPRPRPMDDPRP | 0.123
29 | RRIRCRPPRLPRPRPRPNRSPRP | -0.359
30 | RRIRMRPPRLPRPRPRPTDGPRP | -0.0062
31 | RRIRHRPPRLPRPRPRPRLKPRP | -0.0285
32 | RRIRLRPPRLPRPRPRPKYQPRP | -0.141
33 | RRIRARPPRLPRPRPRPIHWPRP | 0.0725
34 | RRIRVRPPRLPRPRPRPIFFPRP | 0.125
35 | RRIRWRPPRLPRPRPRPFMPPRP | -0.714
36 | RRIRKRPPRLPRPRPRPRQLPRP | 0.8
37 | RRIRNRPPRLPRPRPRPDDAPRP | 0.147
38 | RRIRWRPPRLPRPRPRPPMEPRP | -0.131
39 | RRIRGRPPRLPRPRPRPGQAPRP | 0.353
40 | RRIRNRPPRLPRPRPRPCKMPRP | -0.00674
41 | RRIRWRPPRLPRPRPRPDNDPRP | -0.0628
42 | RRIRDRPPRLPRPRPRPECKPRP | 0.109
43 | RRIRYRPPRLPRPRPRPYMCPRP | -0.0233
44 | RRIRIRPPRLPRPRPRPRWRPRP | 0.267
45 | RRIRLRPPRLPRPRPRPMRAPRP | 0.862
46 | RRIRPRPPRLPRPRPRPPSKPRP | 0.105
47 | RRIRPRPPRLPRPRPRPVHCPRP | 0.046
48 | RRIRIRPPRLPRPRPRPQFHPRP | -1.12
49 | RRIRMRPPRLPRPRPRPGIKPRP | 0.274
50 | RRIRNRPPRLPRPRPRPDREPRP | -0.149

Row | Sequence | shrunken log2 fold change
51 | RRIRNRPPRLPRPRPRPTQNPRP | 0.332
52 | RRIRLRPPRLPRPRPRPTEIPRP | -0.15
53 | RRIRWRPPRLPRPRPRPDQWPRP | 0.399
54 | RRIRLRPPRLPRPRPRPMMCPRP | 0.00205
55 | RRIRHRPPRLPRPRPRPEKNPRP | -0.0893
56 | RRIRVRPPRLPRPRPRPMWGPRP | -0.174
57 | RRIRMRPPRLPRPRPRPPKAPRP | 1.02
58 | RRIRPRPPRLPRPRPRPWVMPRP | 0.211
59 | RRIRTRPPRLPRPRPRPLLNPRP | -0.157
60 | RRIRTRPPRLPRPRPRPYHMPRP | -0.293
61 | RRIRHRPPRLPRPRPRPNRTPRP | 0.031
62 | RRIRHRPPRLPRPRPRPDHFPRP | -0.169
63 | RRIRFRPPRLPRPRPRPMSPPRP | -0.0304
64 | RRIRNRPPRLPRPRPRPCQHPRP | -0.0585
65 | RRIRERPPRLPRPRPRPLRFPRP | 0.493
66 | RRIRWRPPRLPRPRPRPKDGPRP | 0.00598
67 | RRIRVRPPRLPRPRPRPFENPRP | -0.0486
68 | RRIRCRPPRLPRPRPRPQNGPRP | 0.0924
69 | RRIRDRPPRLPRPRPRPTYKPRP | -0.529
70 | RRIRNRPPRLPRPRPRPKTYPRP | -1.23
71 | RRIRNRPPRLPRPRPRPGCDPRP | -0.0442
72 | RRIRDRPPRLPRPRPRPQFLPRP | -0.225
73 | RRIRRRPPRLPRPRPRPKTFPRP | -0.0358
74 | RRIRDRPPRLPRPRPRPMQFPRP | -0.0264
75 | RRIRNRPPRLPRPRPRPMTIPRP | -0.35

Row | Sequence | shrunken log2 fold change
76 | RRIRLRPPRLPRPRPRPRTLPRP | -0.166
77 | RRIRERPPRLPRPRPRPDGNPRP | -0.032
78 | RRIRKRPPRLPRPRPRPMKPPRP | 0.145
79 | RRIRYRPPRLPRPRPRPRTDPRP | -0.0428
80 | RRIRVRPPRLPRPRPRPRFRPRP | 0.193
81 | RRIRDRPPRLPRPRPRPVVAPRP | 0.725
82 | RRIRYRPPRLPRPRPRPTGKPRP | 0.019
83 | RRIRSRPPRLPRPRPRPIGNPRP | -0.234
84 | RRIRERPPRLPRPRPRPQIYPRP | -0.23
85 | RRIRPRPPRLPRPRPRPHPSPRP | 0.000134
86 | RRIRHRPPRLPRPRPRPQADPRP | -0.139
87 | RRIRFRPPRLPRPRPRPRSSPRP | 0.12
88 | RRIRFRPPRLPRPRPRPCSKPRP | -0.152
89 | RRIRLRPPRLPRPRPRPMDKPRP | -0.296
90 | RRIRKRPPRLPRPRPRPNYAPRP | -0.0324
91 | RRIRFRPPRLPRPRPRPPNNPRP | -0.445
92 | RRIRHRPPRLPRPRPRPAWPPRP | 0.613
93 | RRIRLRPPRLPRPRPRPHSWPRP | 0.0861
94 | RRIRLRPPRLPRPRPRPWKPPRP | -0.0142
95 | RRIRIRPPRLPRPRPRPVTHPRP | -0.256
96 | RRIRARPPRLPRPRPRPMKCPRP | -0.0407
97 | RRIRKRPPRLPRPRPRPTGMPRP | 0.128
98 | RRIRYRPPRLPRPRPRPSYDPRP | -0.442
99 | RRIRHRPPRLPRPRPRPDTWPRP | -1.13
100 | RRIRHRPPRLPRPRPRPCAYPRP | -0.0102

Row | Sequence | shrunken log2 fold change
101 | RRIRLRPPRLPRPRPRPILLPRP | -0.235
102 | RRIRRRPPRLPRPRPRPDFEPRP | 0.552
103 | RRIRCRPPRLPRPRPRPYIRPRP | -1.22
104 | RRIRGRPPRLPRPRPRPMYTPRP | 0.876
105 | RRIRMRPPRLPRPRPRPCYVPRP | -0.506
106 | RRIRVRPPRLPRPRPRPLTKPRP | 0.044
107 | RRIRWRPPRLPRPRPRPKLFPRP | 0.589
108 | RRIRERPPRLPRPRPRPVKPPRP | -0.102
109 | RRIRERPPRLPRPRPRPDFEPRP | -0.117
110 | RRIRMRPPRLPRPRPRPTPCPRP | 0.746
111 | RRIRFRPPRLPRPRPRPTQAPRP | 0.442
112 | RRIRCRPPRLPRPRPRPHGGPRP | -0.154
113 | RRIRKRPPRLPRPRPRPYRWPRP | -0.164
114 | RRIRYRPPRLPRPRPRPTLTPRP | -0.0404
115 | RRIRYRPPRLPRPRPRPWLHPRP | -0.991
116 | RRIRMRPPRLPRPRPRPLHQPRP | 0.0887
117 | RRIRWRPPRLPRPRPRPEWSPRP | 0.0628
118 | RRIRFRPPRLPRPRPRPTILPRP | -0.453
119 | RRIRKRPPRLPRPRPRPKPKPRP | 0.464
120 | RRIRVRPPRLPRPRPRPLEQPRP | -0.0372
121 | RRIRARPPRLPRPRPRPNMFPRP | -0.0712
122 | RRIRCRPPRLPRPRPRPTGNPRP | 0.048
123 | RRIRMRPPRLPRPRPRPDKKPRP | -0.0148
124 | RRIRPRPPRLPRPRPRPGRMPRP | 0.318
125 | RRIRFRPPRLPRPRPRPDNLPRP | 0.0632

Row | Sequence | shrunken log2 fold change
126 | RRIRARPPRLPRPRPRPVVLPRP | 0.463
127 | RRIRRRPPRLPRPRPRPVSPPRP | 0.0657
128 | RRIRWRPPRLPRPRPRPWSIPRP | -0.46
129 | RRIRWRPPRLPRPRPRPGQYPRP | 0.0716
130 | RRIRGRPPRLPRPRPRPTLCPRP | 0.443
131 | RRIRFRPPRLPRPRPRPVRLPRP | 0.0919
132 | RRIRLRPPRLPRPRPRPQDPPRP | -0.101
133 | RRIRRRPPRLPRPRPRPIDRPRP | -0.0459
134 | RRIRYRPPRLPRPRPRPSANPRP | -0.0919
135 | RRIRERPPRLPRPRPRPMFCPRP | -0.168
136 | RRIRERPPRLPRPRPRPKMPPRP | -0.0401
137 | RRIRTRPPRLPRPRPRPELNPRP | 0.195
138 | RRIRFRPPRLPRPRPRPDRQPRP | 0.0398
139 | RRIRMRPPRLPRPRPRPTQSPRP | 1.03
140 | RRIRSRPPRLPRPRPRPAIIPRP | 0.0969
141 | RRIRYRPPRLPRPRPRPCWLPRP | 0.0283
142 | RRIRMRPPRLPRPRPRPFTAPRP | 0.245
143 | RRIRHRPPRLPRPRPRPWPHPRP | -0.0305
144 | RRIRTRPPRLPRPRPRPHMSPRP | 0.0303
145 | RRIRERPPRLPRPRPRPYETPRP | 0.0614
146 | RRIRQRPPRLPRPRPRPFKAPRP | -0.059
147 | RRIRWRPPRLPRPRPRPSCMPRP | 0.11
148 | RRIRCRPPRLPRPRPRPLPWPRP | 0.195
149 | RRIRERPPRLPRPRPRPDLTPRP | 0.0375
150 | RRIRSRPPRLPRPRPRPNRVPRP | -0.048
